In ChEMBL document CHEMBL2074463, “Characterization of the hepatic canalicular membrane transport of a model oligopeptide: ditekiren” (J Pharmacol Exp Ther, 1997) one finds Km data, which are given here for one substance.

The test system of this series is CC[C@H](C)[C@H](NC(=O)[C@@H](C[C@H](O)[C@H](CC(C)C)NC(=O)[C@H](Cc1c[nH]cn1)N(C)C(=O)[C@H](Cc1ccccc1)NC(=O)[C@@H]1CCCN1C(=O)OC(C)(C)C)C(C)C)C(=O)NCc1ccccn1. In words: TP_TRANSPORTER: uptake, inhibited by Cyclosporine, Nicardipine, Daunomycin, Verapamil, Reserpine, Rhodamine 123 and Vinblastine in bile canalicular membrane vesicles. It is filed as functional, cell membranes. The conditions noted are these: Rattus norvegicus; Bile canalicular membrane vesicle.

For the substance “Multidrug resistance protein 1a (Rattus norvegicus), Q6PSM0”, the Km (commonly the substrate concentration at which the rate is half of its maximum) came to 19.1 µM.
